From article PMC5300068
Blank lines part the entries; values can stand above or below the substance they belong to.

Experiments:
Assay in all cases: AUC; sedimentation velocity, 50,000 rpm, absorbance optics, c(s) analysis; physiological ionic strength, buffers with Ca2+ or EDTA; 0.8-2.2 uM for full-length MASPs; dimer to monomers
[1] = molecular target: activated full-length rat MASP-1 (rat)
[2] = molecular target: activated full-length rat MASP-2 (rat)
[3] = molecular target: full-length rat MASP-1 zymogen (rat) (UniProt Q8CHN8)
[4] = molecular target: full-length rat MASP-2 zymogen (rat) (UniProt Q9JJS8)
[5] = molecular target: rat MASP-1 CUB1-EGF-CUB2 (MASP-1 3D) (rat) (UniProt Q8CHN8)

Kd [1]: < 0.01 µM
stoichiometry N [1]: 2
Substance: activated full-length rat MASP-1 (enzyme)

Kd [2]: < 0.01 µM
stoichiometry N [2]: 2
Substance: activated full-length rat MASP-2 (enzyme)

Kd [3]: < 0.01 µM
stoichiometry N [3]: 2
Substance: full-length rat MASP-1 zymogen (from UniProt Q8CHN8 25-704) (enzyme)

Kd [4]: < 0.01 µM
stoichiometry N [4]: 2
Substance: full-length rat MASP-2 zymogen (from UniProt Q9JJS8 20-685) (enzyme)

stoichiometry N [5]: 2
Substance: rat MASP-1 CUB1-EGF-CUB2 (MASP-1 3D) (from UniProt Q8CHN8 61-301) (domain or fragment)
